# Experimental data from paper PMC8529494, “KAT6A Acetylation of SMAD3 Regulates Myeloid‐Derived Suppressor Cell Recruitment, Metastasis, and Immunotherapy in Triple‐Negative Breast Cancer” (Advanced Science, 2021).
# T1: (His)6-TRIM24 (UniProt O15164 1-1050)
# T1 construct: Tripartite motif-containing 24 (TRIM24); also called tripartite motif-containing 24; source: recombinant, purified
# T1 sequence (looked up): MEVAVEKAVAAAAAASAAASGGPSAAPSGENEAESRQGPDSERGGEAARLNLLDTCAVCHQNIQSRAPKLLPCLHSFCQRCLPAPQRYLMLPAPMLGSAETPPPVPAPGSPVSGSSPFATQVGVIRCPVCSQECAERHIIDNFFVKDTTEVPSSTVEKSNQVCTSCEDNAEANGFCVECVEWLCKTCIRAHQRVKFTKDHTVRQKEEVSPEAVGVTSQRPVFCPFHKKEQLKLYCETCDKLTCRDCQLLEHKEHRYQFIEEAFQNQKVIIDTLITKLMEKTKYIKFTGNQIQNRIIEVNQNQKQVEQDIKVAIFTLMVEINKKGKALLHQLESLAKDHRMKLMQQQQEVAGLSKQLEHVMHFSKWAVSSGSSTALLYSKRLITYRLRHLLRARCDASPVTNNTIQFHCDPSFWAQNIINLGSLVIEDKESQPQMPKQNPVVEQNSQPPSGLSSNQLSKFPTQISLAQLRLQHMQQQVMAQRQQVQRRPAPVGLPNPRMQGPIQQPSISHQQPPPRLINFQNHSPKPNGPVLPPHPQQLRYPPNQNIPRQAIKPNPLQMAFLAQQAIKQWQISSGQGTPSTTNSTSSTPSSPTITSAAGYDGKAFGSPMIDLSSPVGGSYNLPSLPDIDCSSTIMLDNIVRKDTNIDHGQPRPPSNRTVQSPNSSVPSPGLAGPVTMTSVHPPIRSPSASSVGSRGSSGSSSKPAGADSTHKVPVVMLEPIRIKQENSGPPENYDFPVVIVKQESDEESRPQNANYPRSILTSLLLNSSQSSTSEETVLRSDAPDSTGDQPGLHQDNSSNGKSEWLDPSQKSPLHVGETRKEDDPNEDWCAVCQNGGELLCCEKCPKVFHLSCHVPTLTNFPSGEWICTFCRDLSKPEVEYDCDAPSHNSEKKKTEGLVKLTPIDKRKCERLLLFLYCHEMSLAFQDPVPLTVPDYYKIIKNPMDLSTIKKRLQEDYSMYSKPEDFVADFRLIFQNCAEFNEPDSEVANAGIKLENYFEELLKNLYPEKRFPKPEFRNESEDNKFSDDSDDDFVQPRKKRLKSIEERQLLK
# B1: GST-SMAD3 (natural protein, UniProt P84022 1-425, looked up)
# chain: MSSILPFTPPIVKRLLGWKKGEQNGQEEKWCEKAVKSLVKKLKKTGQLDELEKAITTQNVNTKCITIPRSLDGRLQVSHRKGLPHVIYCRLWRWPDLHSHHELRAMELCEFAFNMKKDEVCVNPYHYQRVETPVLPPVLVPRHTEIPAEFPPLDDYSHSIPENTNFPAGIEPQSNIPETPPPGYLSEDGETSDHQMNHSMDAGSPNLSPNPMSPAHNNLDLQPVTYCEPAFWCSISYYELNQRVGETFHASQPSMTVDGFTDPSNSERFCLGLLSNVNRNAAVELTRRHIGRGVRLYYIGGEVFAECLSDSAIFVQSPNCNQRYGWHPATVCKIPPGCNLKIFNNQEFAALLAQSVNQGFEAVYQLTRMCTIRMSFVKGWGAEYRRQTVTSTPCWIELHLNGPLQWLDKVLTQMGSPSIRCSSVS
# notes: SMAD3; also called recombinant GST-SMAD3; source: recombinant, purified
# Target: T1, (His)6-TRIM24
# Assay: pull-down; GST pull-down with purified GST-SMAD3 and (His)6-TRIM24, western blot with anti-TRIM24 and anti-SMAD3
# Conditions: both partners purified
binder,measurement,value
B1,binding result,binds
